{
  "source": "paper PMC10473253",
  "about": "“A novel salt- and organic solvent-tolerant phosphite dehydrogenase from Cyanothece sp. ATCC 51142” (Frontiers in Bioengineering and Biotechnology, 2023)",
  "proteins": {"B1": {"name": "Ct-PtxD (Crocosphaera subtropica ATCC 51142) (protein)", "chain": "MNQKPKVVITHWVHPEIIDYLTPHCELILNQTKETLTREEVINRSKDAQGLMVFMPDYIDVNFLEACPQLKVISGALRGYDNFDVEACTKRNIWFTIVPDLLAAPTAELTIGLLLILARRMVEGDRLIRSGNFQGWKPQLYSTGLLNKTLGIIGMGKLGKALTKRLMGFDMTLLYHDKITLTSQQERDWKITKTSLEELLTKSDYVVLMVPLVPDTYHLINENSLKMMKPNSFLINPCRGSIVDETAVATAIKSGHLAGYAADVFEMEDWAIANRPQSINQTLLTDINHTFFTPHLGSAVNEVRRDIALEAAKNIIEVLSENRPQGAVNGIV", "notes": "full-length, 332 residues; pET-21b(+) NdeI/XhoI, His-tagged, E. coli Rosetta2 (DE3) pLysS"}},
  "assay_in_all_cases": "purified protein",
  "type_in_all_cases": "biochemical, Crocosphaera subtropica",
  "key": {"[1]": {"substrate": "NC(=O)c1ccc[n+]([C@@H]2O[C@H](COP(=O)(O)OP(=O)(O)OC[C@H]3O[C@@H](n4cnc5c(N)ncnc54)[C@H](O)[C@@H]3O)[C@@H](O)[C@H]2O)c1", "details": "1.0 mM phosphite, 100 mM MOPS pH 7.3, 37°C, text b35 prints kcat 2.24 ± 0.15"}, "[2]": {"substrate": "NC(=O)c1ccc[n+]([C@@H]2O[C@H](COP(=O)(O)OP(=O)(O)OC[C@H]3O[C@@H](n4cnc5c(N)ncnc54)[C@H](OP(=O)(O)O)[C@@H]3O)[C@@H](O)[C@H]2O)c1", "details": "1.0 mM phosphite, 100 mM MOPS pH 7.3, 37°C"}, "[3]": {"substrate": "O=[PH](O)O", "details": "1.0 mM NAD+ as co-substrate, 100 mM MOPS pH 7.3, 37°C"}},
  "data": [
    {"protein": "B1", "values": [
      {"measurement": "Km", "setting": "[1]", "value": "9.07 ± 1.05", "unit": "µM"},
      {"measurement": "Km", "setting": "[2]", "value": "122 ± 4", "unit": "µM"},
      {"measurement": "Km", "setting": "[3]", "value": "168 ± 25", "unit": "µM"}
    ]}
  ]
}
